# System: type II diabetic mice (C57BL/Ks-Lepr db/db)
# Experiment: In vivo bioactivity in type II diabetic mice
# Settings: 5 μg peptide s.c. twice a day, day 2, 4, 7, 10
# Description: 11-week-old type II diabetic mice (C57BL/Ks-Lepr^db/db, Harlan) were treated with 5 μg peptide by subcutaneous injection twice a day at 9 a.m. and 5 p.m. (n=5 per group). Blood glucose was measured before (day 0) and after treatment with GLP^CM peptides (Day 2, 4, 7, 10) at 10 a.m. after an overnight fastening period. Data were presented in relation to blood glucose levels measured at day 0.
# Best results were obtained with recombinant SEQ ID NO:6 (CM1) and synthetic SEQ ID NO:8 (CM3). In FIG. 9 (y-axis) the relative effect of the treatment is shown. Blood glucose at day ═O was set to 1. Untreated animals undergo continuous increase in blood glucose level over time, whereas animals treated with inventive peptides display grosso modo a continuous decrease of the blood glucose level over time.
molecule,measurement,value
GLP-1(7-37)—IP2-RR-GLP2 (83 aa fusion peptide) HAEGTFTSDVSSYLEGQAAKEFIAWLVKGRGRRDFPEEVAIAEELGRRHADGSFSDEMSTILDNLATRDFINWLIQTKITDKK,anti-hyperglycemia effect (blood glucose relative to day 0),anti-hyperglycemia effect
